Laboratory results as given in patent publication US20190367560A1.
Bridges are numbered along the chain shown (N, C = ends). Primed or numbered codes have the meaning given here. Where no end group is shown, it is not given here. [ ]: non-standard residue; d: D form. The star is where a group is joined. Biotin = O=C1N[C@H]2[C@H](CS[C@H]2CCCCC(=O)*)N1; Fmoc = O=C(OCC1c2ccccc2-c2ccccc21)*; PEG4′ = not defined here

Legend:
IgG [1] = assay: SPR (BIAcore T200), equilibrium value
IgG [2] = assay: SPR (BIAcore T200), 1:1 binding fit
[3] = target: human serum-derived γ-globulin (Wako) (human); assay: dynamic binding capacity at 10% breakthrough; Protein A support; residence time 2.5 min
[4] = target: human serum-derived γ-globulin (Wako) (human); assay: dynamic binding capacity at 10% breakthrough; Protein A support; residence time 5 min
[5] = target: human serum-derived γ-globulin (Wako) (human); assay: dynamic binding capacity at 10% breakthrough; Protein A support; residence time 1 min
[6] = target: human serum-derived γ-globulin (Wako) (human); assay: dynamic binding capacity at 10% breakthrough; 4 mg peptide on 1-mL column; residence time 1 min
[7] = target: human serum-derived γ-globulin (Wako) (human); assay: dynamic binding capacity at 10% breakthrough; 1 mg peptide on 1-mL column; residence time 1 min
[8] = target: human serum-derived γ-globulin (Wako) (human); assay: DBC at 1 mL/min, 1 mg peptide column, after 1 cycle of 0.1 M NaOH washing
[9] = target: human serum-derived γ-globulin (Wako) (human); assay: dynamic binding capacity at 10% breakthrough; 10 mg peptide on 1-mL column; residence time 2.5 min
[10] = target: human serum-derived γ-globulin (Wako) (human); assay: DBC at 1 mL/min, 1 mg peptide column, after 3 cycles of 0.1 M NaOH washing
[11] = target: human serum-derived γ-globulin (Wako) (human); assay: DBC at 1 mL/min, 1 mg peptide column, after 2 cycles of 0.1 M NaOH washing
[12] = target: human serum-derived γ-globulin (Wako) (human); assay: dynamic binding capacity at 10% breakthrough; 4 mg peptide on 1-mL column; residence time 2.5 min
[13] = target: human serum-derived γ-globulin (Wako) (human); assay: DBC at 1 mL/min, 1 mg peptide column, after 4 cycles of 0.1 M NaOH washing
[14] = target: human serum-derived γ-globulin (Wako) (human); assay: DBC at 1 mL/min, 1 mg peptide column, after 0 cycles of 0.1 M NaOH washing
[15] = target: human serum-derived γ-globulin (Wako) (human); assay: dynamic binding capacity at 10% breakthrough; 1 mg peptide on 1-mL column; residence time 2.5 min
[16] = target: human serum-derived γ-globulin (Wako) (human); assay: dynamic binding capacity at 10% breakthrough; 10 mg peptide on 1-mL column; residence time 5 min
[17] = target: human serum-derived γ-globulin (Wako) (human); assay: dynamic binding capacity at 10% breakthrough; 1 mg peptide on 1-mL column; residence time 5 min
[18] = target: human serum-derived γ-globulin (Wako) (human); assay: dynamic binding capacity at 10% breakthrough; 10 mg peptide on 1-mL column; residence time 1 min
[19] = target: human serum-derived γ-globulin (Wako) (human); assay: DBC at 1 mL/min, 1 mg peptide column, after 5 cycles of 0.1 M NaOH washing
[20] = target: human serum-derived γ-globulin (Wako) (human); assay: dynamic binding capacity at 10% breakthrough; 4 mg peptide on 1-mL column; residence time 5 min
IgG [21] = assay: SPR as in Example 1 (BIAcore T200, IgG immobilized)

## GPDCAYH(Xaa1)…-NH2 (SEQ ID NO:2, wherein Xaa1 is acetylated lysine), N-terminus blocked with biotinylated PEG4, intramolecular S-S bond (peptide)
IgG [1]
  Kd: 2800 nM
IgG [2]
  Kd: 2700 nM

## commercially available Protein A support MabSelect (GE Healthcare) (from UniProt P38507 37-327)
[3]
  DBC: 24.3
[4]
  DBC: 43.7
[5]
  DBC: 10

## GPDCAYH(Xaa1)…-NH2 (SEQ ID NO:2, wherein Xaa1 is lysine), N-terminus blocked with biotinylated PEG4, intramolecular S-S bond (peptide)
IgG [1]
  Kd: 131 nM
IgG [2]
  Kd: 156 nM

B1: Peptide a: N-terminally PEG4-modified and C-terminally amidated GPDCAYH(Xaa1)… (SEQ ID NO:2, Xaa1 arginine), cysteines cross-linked with … (peptide)
peptide: [PEG4′]GPDCAYHRGELVWCTFH-NH2
modifications: linker 5-15 via 1,3‑dichloro‑2‑propanone
[6]
  DBC: 12.1
[7]
  DBC: 2.3
[8]
  DBC 10%: 4.8 mg/mL
  DBC 10% (% NaOH washing cycle 0): 100%
[9]
  DBC: 29.5
[10]
  DBC 10%: 4.8 mg/mL
  DBC 10% (% NaOH washing cycle 0): 100%
[11]
  DBC 10%: 4.9 mg/mL
  DBC 10% (% NaOH washing cycle 0): 102%
[12]
  DBC: 15.8
[13]
  DBC 10%: 4.8 mg/mL
  DBC 10% (% NaOH washing cycle 0): 100%
[14]
  DBC 10%: 4.8 mg/mL
  DBC 10% (% NaOH washing cycle 0): 100%
[15]
  DBC: 3.4
[16]
  DBC: 31.4
[17]
  DBC: 7
[18]
  DBC: 23.1
[19]
  DBC 10%: 4.7 mg/mL
  DBC 10% (% NaOH washing cycle 0): 97.9%
[20]
  DBC: 23.1

B2: GPRCAYH(Xaa1)…-NH2 (SEQ ID NO:4, wherein Xaa1 is arginine), N-terminus blocked with biotinylated PEG4, intramolecular S-S bond (peptide)
peptide: {Biotin-PEG4′}-GPRCAYHRGELVWCSFH-NH2
modifications: disulfide 4-14 (inferred)
IgG [1]
  Kd: 56 nM
IgG [2]
  Kd: 42 nM

B3: GPDCAYH(Xaa1)…-NH2 (SEQ ID NO:2, wherein Xaa1 is leucine), N-terminus blocked with biotinylated PEG4, intramolecular S-S bond (peptide)
peptide: {Biotin-PEG4′}-GPDCAYHLGELVWCTFH-NH2
modifications: disulfide 4-14 (inferred)
IgG [2]
  Kd: 8.1 nM

B4: DCAYH(Xaa1)GELVWCT-NH2 (SEQ ID NO:1, wherein Xaa1 is arginine), N-terminus blocked with biotinylated PEG4, intramolecular S-S bond (peptide)
peptide: {Biotin-PEG4′}-DCAYHRGELVWCT-NH2
modifications: disulfide 2-12 (inferred)
IgG [1]
  Kd: 64.5 nM
IgG [2]
  Kd: 54 nM

B5: GPDCAYH(Xaa1)…-NH2 (SEQ ID NO:2, wherein Xaa1 is arginine), N-terminus blocked with biotinylated PEG4, intramolecular S-S bond (peptide)
peptide: {Biotin-PEG4′}-GPDCAYHRGELVWCTFH-NH2
modifications: disulfide 4-14 (inferred)
IgG [1]
  Kd: 10 nM
IgG [2]
  Kd: 9.1 nM

B6: Peptide b: Fmoc-HN-PEG4-GPDCAYH(Xaa1)… (SEQ ID NO:2, Xaa1 arginine, C-terminus amidated), cysteines cross-linked with thiocarbonyldiimidazole (peptide)
peptide: {Fmoc-PEG4′}-GPDCAYHRGELVWCTFH-NH2
modifications: linker 4-14 via thiocarbonyldiimidazole
IgG [21]
  Kd: 1000 nM
